Publication PMC3862839, “From Knock-Out Phenotype to Three-Dimensional Structure of a Promising Antibiotic Target from Streptococcus pneumoniae” (PLoS ONE, 2013)

B1: Streptococcus pneumoniae dihydrodipicolinate synthase (enzyme, UniProt Q97R25 1-311, looked up)
chain: MSYQDLKKCKIITAFITPFHEDGSINFDAIPALIEHLLAHHTDGILLAGTTAESPTLTHDEELELFAAVQKVVNGRVPLIAGVGTNDTRDSIEFVKEVAEFGGFAAGLAIVPYYNKPSQEGMYQHFKTIADASDLPIIIYNIPGRVVVELTPETMLRLADHPNIIGVKECTSLANMAYLIEHKPEEFLIYTGEDGDAFHAMNLGADGVISVASHTNGDEMHEMFTAIAESDMKKAAAIQRKFIPKVNALFSYPSPAPVKAILNYMGFEAGPTRLPLVPAPEEDAKRIIKVVVDGDYEATKATVTGVLRPDY
notes: Dihydrodipicolinate synthase (DHDPS, product of dapA) of Streptococcus pneumoniae; Homotetramer (dimer of 'tight' dimers) in solution and in the crystal; also called Sp-DHDPS; sp-DHDPS

Tests used:
[1] = molecular target: Ec-DHDPS (dimer) (Escherichia coli) (UniProt P0A6L2); details: cited from earlier work
[2] = molecular target: the molecule itself; experiment: AUC; sedimentation equilibrium, 10,000 and 18,000 rpm, 20°C, 20 mM Tris-HCl pH 8.0, 150 mM NaCl; 296, 355 and 740 nM Sp-DHDPS; global fit to a dimer-tetramer model (SEDPHAT); tetramer to dimers
[3] = molecular target: the molecule itself; experiment: AUC; sedimentation velocity, 40,000 rpm, 20°C, 20 mM Tris-HCl pH 8.0, 150 mM NaCl; Sp-DHDPS at 4.5 µM and at 740 nM; c(s) and c(M) distributions (SEDFIT)
purified protein [4] = substrate: N[C@@H](CC=O)C(=O)O; experiment: purified protein; details: co-substrate pyruvate 0.5-16 mM, 250 mM HEPES pH 8.0, 30 °C, 0.2 mM NADPH, 20 nM enzyme, global ping-pong fit without substrate inhibition
From the text: (§1) DHDPS-DHDPR coupled assay, NADPH oxidation on Sp-DHDPS (dihydrodipicolinate synthase)

purified protein [5] = substrate: CC(=O)C(=O)O; experiment: purified protein; details: co-substrate (S)-ASA 0-0.48 mM, 250 mM HEPES pH 8.0, 30 °C, 0.2 mM NADPH, 20 nM enzyme, global ping-pong fit without substrate inhibition
From the text: as §1

| Molecule | Kd [1] | Kd [2] | stoichiometry N [3] | Km (purified protein [4]) | kcat (purified protein [4]) | Km (purified protein [5]) | kcat (purified protein [5]) |
| --- | --- | --- | --- | --- | --- | --- | --- |
| Ec-DHDPS (dimer) (from UniProt P0A6L2) | 0.076 µM | – | – | – | – | – | – |
| B1 | – | 0.0017 µM | 4 | 44 ± 3 µM | 22 s⁻¹ | 2550 ± 50 µM | 22 s⁻¹ |
